Experimental findings from patent US20200332003A1 are described below.

What is called Kd is the free concentration of one partner at which half of the binding sites on the other are occupied at equilibrium, for simple one-to-one binding. The term koff denotes the rate constant with which the complex falls apart. As usually defined, the kon is the rate constant with which the complex forms.

In assay [1] the target is TRBV9 + TRAV26 antigen. Kind of assay: BLI (OctetRed 96), antigen immobilized on AR2G sensor, antibody 126-2 nM, 1:1 model.
In assay [2] the target is TRBV9 + TRAV38 antigen. The description is as above.
Assay [3] concerns the target T cell receptor with a beta-chain of the TRBV9 family on human peripheral blood T lymphocytes (human). In words: flow cytometry of human blood mononuclear cells, FITC-labelled antibody at 27 ng per test (lower plot), co-stained with anti-CD3-eFluor 405 [lower plot]. A general note: A flow cytometer gives signals particle by particle.
Assay [4] has the same target. Kind of assay: flow cytometry of human blood mononuclear cells, FITC-labelled antibody at 270 ng per test (upper plot), co-stained with anti-CD3-eFluor 405 [upper plot].
For assay [5] the target is unchanged. In words: flow cytometry, FITC-labelled antibody at 5 ng/ul and 0.5 ng/ul on human mononuclear blood cells.
For assay [6] the target is unchanged. In words: cell sorting with the FITC-labelled antibody, then sequencing of TCR beta-chains.

Substitutions are numbered along the chain they refer to. “And” between values parts separate entries of the source, which are not always exact repeats. Identical values can stand only once.

B1: anti-TRBV9-1 monoclonal antibody (antibody, human IgG1, kappa, V domains shown)
VH: QIQLVQSGPELREPGESVKLSCKASGYTFTDYLVHWVKQAPGKGLKWMGWINTYTGTPTYADDFEGRFVFSLEASASTANLQISNLKNEDTATYFCARSWRRGLRGLGFDYWGQGVFVTVSS
VL: DVQMTQSPYNLAASPGESVSINCKASKSINKYLAWYQQKPGKPNKLLIYDGSTLQSGIPSRFSGSGSGTDFTLTIRGLEPEDFGLYYCQQHNEYPPTFGAGTKLELKR
On to B1, for which, in assay [1], the Kd was 0.22 nM and 0.204 nM and 0.278 nM; the koff was 0.000114 s⁻¹ and 0.000113 s⁻¹ and 0.000183 s⁻¹; the kon was 559000 M⁻¹ s⁻¹ and 515000 M⁻¹ s⁻¹ and 658000 M⁻¹ s⁻¹. In assay [2], the dissociation constant (Kd) is 0.365 nM and 0.529 nM and 0.414 nM; the koff was 0.000205 s⁻¹ and 0.000196 s⁻¹ and 0.000183 s⁻¹; the kon is 562000 M⁻¹ s⁻¹ and 371000 M⁻¹ s⁻¹ and 441000 M⁻¹ s⁻¹. In assay [3], the % of cells in the CD3+TRBV9+ gate (small rectangle) turned out to be 3%. The same molecule returned a % of cells in the CD3+TRBV9+ gate (small rectangle) in assay [4] of 1.6%.

B2: anti-TRBV9-4 monoclonal antibody (antibody, human IgG1, kappa, V domains shown)
VH: B1 VH with L104I, L107I
VL: B1 VL
With B2, in assay [1], the Kd was less than 0.001 nM; the koff is less than 1e-07 s⁻¹; the kon is 865000 M⁻¹ s⁻¹ and 579000 M⁻¹ s⁻¹. In assay [2], the Kd is less than 0.001 nM; the off-rate (koff) was less than 1e-07 s⁻¹; the association rate constant (kon) is 713000 M⁻¹ s⁻¹ and 476000 M⁻¹ s⁻¹. This molecule also gave a % of cells in the CD3+TRBV9+ gate (small rectangle) in assay [3] of 2.4%. This molecule had a % of cells in the CD3+TRBV9+ gate (small rectangle) in assay [4] of 2.9%.

B3: anti-TRBV9-2 monoclonal antibody (antibody, human IgG1, kappa, V domains shown)
VH: B1 VH with L107I
VL: B1 VL
As to B3, in assay [1], the association rate constant (kon) was 447000 M⁻¹ s⁻¹ and 381000 M⁻¹ s⁻¹. In addition, in assay [2], the Kd is less than 0.001 nM; the koff is less than 1e-07 s⁻¹; the on-rate (kon) was 397000 M⁻¹ s⁻¹ and 289000 M⁻¹ s⁻¹. Also, the percent of the CD3-positive fraction stained in assay [5] came out at 2.9%. Also, the percent of TCR beta-chain sequences of the sorted CD3+TRBV9+ fraction that belong to the TRBV9 family in assay [6] stood at 90%.

B4: anti-TRBV9-3 monoclonal antibody (antibody, human IgG1, kappa, V domains shown)
VH: B1 VH with L104I
VL: B1 VL
For B4, in assay [1], the equilibrium dissociation constant (Kd) was 0.319 nM and 0.582 nM; the off-rate (koff) was 9.16e-05 s⁻¹ and 9.8e-05 s⁻¹; the kon is 287000 M⁻¹ s⁻¹ and 168000 M⁻¹ s⁻¹. For the same molecule, in assay [2], the dissociation constant Kd was 0.311 nM and 0.4 nM; the koff was 9.61e-05 s⁻¹ and 9.16e-05 s⁻¹; the kon was 309000 M⁻¹ s⁻¹ and 229000 M⁻¹ s⁻¹. The same molecule displayed a % of cells in the CD3+TRBV9+ gate (small rectangle) in assay [3] of 2.6%. In assay [4], this molecule yielded a % of cells in the CD3+TRBV9+ gate (small rectangle) of 3%.
